Experimental data reported in the supplement of paper PMC11246515.
± gives the standard deviation of the averaged measurements.

Experiment: total protein half-life in vivo (active degradation + dilution); higher = more stable protein
[1] = wild type E. coli NCM3722, growth: C-lim chemostat, doubling time 3 h
[2] = wild type E. coli NCM3722, growth: C-lim chemostat, doubling time 6 h
[3] = wild type E. coli NCM3722, growth: C-lim chemostat, doubling time 12 h
[4] = E. coli NCM3722 delta-clpP delta-lon delta-hslV, growth: N-lim chemostat, doubling time 6 h
[5] = E. coli NCM3722 delta-clpP, growth: N-lim chemostat, doubling time 6 h
[6] = E. coli NCM3722 delta-hslV, growth: N-lim chemostat, doubling time 6 h
[7] = E. coli NCM3722 delta-lon, growth: N-lim chemostat, doubling time 6 h
[8] = E. coli NCM3722 delta-smpB, growth: N-lim chemostat, doubling time 6 h
[9] = wild type E. coli NCM3722, growth: N-lim chemostat, doubling time 6 h
[10] = wild type E. coli NCM3722, growth: N-lim chemostat, doubling time 12 h
[11] = wild type E. coli NCM3722, growth: P-lim chemostat, doubling time 6 h
[12] = wild type E. coli NCM3722, growth: P-lim chemostat, doubling time 12 h

Sequence | total protein half-life in vivo [1] [h] | total protein half-life in vivo [2] [h] | total protein half-life in vivo [3] [h] | total protein half-life in vivo [4] [h] | total protein half-life in vivo [5] [h] | total protein half-life in vivo [6] [h] | total protein half-life in vivo [7] [h] | total protein half-life in vivo [8] [h] | total protein half-life in vivo [9] [h] | total protein half-life in vivo [10] [h] | total protein half-life in vivo [11] [h] | total protein half-life in vivo [12] [h]
MKHLTEMVRQHKAGKTNGIYAVCSAHPLVLEAAIRYASANQTPLLIEATSNQVDQFGGYTGMTPADFRGFVCQLADSLNFPQDALILGGDHLGPNRWQNLPAAQAMANADDLIKSYVAAGFKKIHLDCSMSCQDDPIPLTDDIVAERAARLAKVAEETCLEHFGEADLEYVIGTEVPVPGGAHETLSELAVTTPDAARATLEAHRHAFEKQGLNAIWPRIIALVVQPGVEFDHTNVIDYQPAKASALSQMVENYETLIFEAHSTDYQTPQSLRQLVIDHFAILKVGPALTFALREALFSLAAIEEELVPAKACSGLRQVLEDVMLDRPEYWQSHYHGDGNARRLARGYSYSDRVRYYWPDSQIDDAFAHLVRNLADSPIPLPLISQYLPLQYVKVRSGELQPTPRELIINHIQDILAQYHTACEGQ [P0C8K0] | 2.63 ± 0.042 | 3.29 | 5 ± 1.3 |  |  |  |  |  |  |  |  | 
MKHSVSVTCCALLVSSISLSYAAEVPSGTVLAEKQELVRHIKDEPASLDPAKAVGLPEIQVIRDLFEGLVNQNEKGEIVPGVATQWKSNDNRIWTFTLRDNAKWADGTPVTAQDFVYSWQRLVDPKTLSPFAWFAALAGINNAQAIIDGKATPDQLGVTAVDAHTLKIQLDKPLPWFVNLTANFAFFPVQKANVESGKEWTKPGNLIGNGAYVLKERVVNEKLVVVPNTHYWDNAKTVLQKVTFLPINQESAATKRYLAGDIDITESFPKNMYQKLLKDIPGQVYTPPQLGTYYYAFNTQKGPTADQRVRLALSMTIDRRLMTEKVLGTGEKPAWHFTPDVTAGFTPEPSPFEQMSQEELNAQAKTLLSAAGYGPQKPLKLTLLYNTSENHQKIAIAVASMWKKNLGVDVKLQNQEWKTYIDSRNTGNFDVIRASWVGDYNEPSTFLTLLTSTHSGNISRFNNPAYDKVLAQASTENTVKARNADYNAAEKILMEQAPIAPIYQYTNGRLIKPWLKGYPINNPEDVAYSRTMYIVKH | 3.26 ± 0.29 | 6.21 ± 0.43 | 10.1 ± 0.25 | 5.12 ± 0.18 | 5.6 ± 0.17 | 6.96 ± 0.47 | 6.18 ± 0.087 | 5.63 ± 0.21 | 6.41 ± 0.44 | 12.1 ± 0.92 | 5.86 ± 0.16 | 12.4 ± 1.1
MKIATIKTGLASLAMLPGLVMAAPAVADKADNAFMMICTALVLFMTIPGIALFYGGLIRGKNVLSMLTQVTVTFALVCILWVVYGYSLAFGEGNNFFGNINWLMLKNIELTAVMGSIYQYIHVAFQGSFACITVGLIVGALAERIRFSAVLIFVVVWLTLSYIPIAHMVWGGGLLASHGALDFAGGTVVHINAAIAGLVGAYLIGKRVGFGKEAFKPHNLPMVFTGTAILYIGWFGFNAGSAGTANEIAALAFVNTVVATAAAILGWIFGEWALRGKPSLLGACSGAIAGLVGVTPACGYIGVGGALIIGVVAGLAGLWGVTMLKRLLRVDDPCDVFGVHGVCGIVGCIMTGIFAASSLGGVGFAEGVTMGHQLLVQLESIAITIVWSGVVAFIGYKLADLTVGLRVPEEQEREGLDVNSHGENAYNA |  |  |  | 5.75 ± 1.4 | 4.24 ± 0.22 | 5.51 ± 1.2 | 5.81 ± 2 | 4.6 ± 0.47 | 4.78 ± 0.62 | 8.59 ± 0.8 |  | 
MKIDLNADLGEGCASDAELLTLVSSANIACGFHAGDAQIMQACVREAIKNGVAIGAHPSFPDRENFGRSAMQLPPETVYAQTLYQIGALATIARAQGGVMRHVKPHGMLYNQAAKEAQLADAIARAVYACDPALILVGLAGSELIRAGKQYGLTTREEVFADRGYQADGSLVPRSQSGALIENEEQALAQTLEMVQHGRVKSITGEWATVAAQTVCLHGDGEHALAFARRLRSAFAEKGIVVAA | 2.4 ± 0.35 |  | 7.69 ± 0.61 | 5 ± 0.5 |  | 3.66 | 5.55 ± 2 | 3.12 ± 0.19 | 3.911 ± 0.035 | 5.79 ± 0.9 | 4.55 ± 0.18 | 7.81 ± 1.7
MKIGTQNQAFFPENILEKFRYIKEMGFDGFEIDGKLLVNNIEEVKAAIKETGLPVTTACGGYDGWIGDFIEERRLNGLKQIERILEALAEVGGKGIVVPAAWGMFTFRLPPMTSPRSLDGDRKMVSDSLRVLEQVAARTGTVVYLEPLNRYQDHMINTLADARRYIVENDLKHVQIIGDFYHMNIEEDNLAQALHDNRDLLGHVHIADNHRYQPGSGTLDFHALFEQLRADNYQGYVVYEGRIRAEDPAQAYRDSLAWLRTC |  |  |  | 5.87 ± 0.64 |  |  |  |  |  |  |  | 
MKIIILGAGQVGGTLAENLVGENNDITVVDTNGERLRTLQDKFDLRVVQGHGSHPRVLREAGADDADMLVAVTSSDETNMVACQVAYSLFNTPNRIARIRSPDYVRDADKLFHSDAVPIDHLIAPEQLVIDNIYRLIEYPGALQVVNFAEGKVSLAVVKAYYGGPLIGNALSTMREHMPHIDTRVAAIFRHDRPIRPQGSTIVEAGDEVFFIAASQHIRAVMSELQRLEKPYKRIMLVGGGNIGAGLARRLEKDYSVKLIERNQQRAAELAEKLQNTIVFFGDASDQELLAEEHIDQVDLFIAVTNDDEANIMSAMLAKRMGAKKVMVLIQRRAYVDLVQGSVIDIAISPQQATISALLSHVRKADIVGVSSLRRGVAEAIEAVAHGDESTSRVVGRVIDEIKLPPGTIIGAVVRGNDVMIANDNLRIEQGDHVIMFLTDKKFITDVERLFQPSPFFL [P0AGI8] | 3.056 ± 0.029 | 6.56 ± 0.57 | 11.5 ± 0.3 | 6.84 ± 1.2 | 4.97 ± 0.52 | 5.96 ± 0.17 | 5.31 ± 0.37 | 5.41 ± 0.16 | 5.839 ± 0.044 | 12 ± 0.56 | 6.38 ± 0.11 | 13.2 ± 0.66
MKIILLFLAALASFTVHAQPPSQTVEQTVRHIYQNYKSDATAPYFGETGERAITSARIQQALTLNDNLTLPGNIGWLDYDPVCDCQDFGDLVLESVAITQTDADHADAVVRFRIFKDDKEKTTQTLKMVAENGRWVIDDIVSNHGSVLQAVNSENEKTLAALASLQKEQPEAFVAELFEHIADYSWPWTWVVSDSYRQAVNAFYKTTFKTANNPDEDMQIERQFIYDNPICFGEESLFSRVDEIRVLEKTADSARIHVRFTLTNGNNEEQELVLQRREGKWEIADFIRPNSGSLLKQIEAKTAARLKQ | 3.56 | > 8 | 11.1 ± 0.5 | 5.65 | 5.01 ± 0.93 |  | 6.249 ± 0.025 | 5.65 ± 0.12 | 6.33 ± 0.27 | 12.3 ± 1.8 | 6.45 | 11.28 ± 0.1
MKIISFVLPCLLVLAGCSTPSQPEAPKPPQIGMANPASVYCQQKGGTLIPVQTAQGVSNNCKLPGGETIDEWALWRRDHPAGEK | 2.68 |  | 15.8 ± 0.2 |  | > 8 |  | 6.51 | 5.85 |  | 14.4 ± 0.2 | 6.22 | 
MKIKAVGAYSAKQPLEPMDITRREPGPNDVKIEIAYCGVCHSDLHQVRSEWAGTVYPCVPGHEIVGRVVAVGDQVEKYAPGDLVGVGCIVDSCKHCEECEDGLENYCDHMTGTYNSPTPDEPGHTLGGYSQQIVVHERYVLRIRHPQEQLAAVAPLLCAGITTYSPLRHWQAGPGKKVGVVGIGGLGHMGIKLAHAMGAHVVAFTTSEAKREAAKALGADEVVNSRNADEMAAHLKSFDFILNTVAAPHNLDDFTTLLKRDGTMTLVGAPATPHKSPEVFNLIMKRRAIAGSMIGGIPETQEMLDFCAEHGIVADIEMIRADQINEAYERMLRGDVKYRFVIDNRTLTD | 3.225 ± 0.021 | 5.86 ± 0.58 | 11 ± 0.91 | 4.84 ± 0.2 | 4.8 ± 0.18 | 4.92 ± 0.16 | 5.05 ± 0.38 | 4.66 ± 0.61 | 5.04 ± 0.17 | 8.89 ± 0.21 | 6.23 ± 0.59 | 12 ± 0.78
MKIKNILLTLCTSLLLTNVAAHAKEVKIGMAIDDLRLERWQKDRDIFVKKAESLGAKVFVQSANGNEETQMSQIENMINRGVDVLVIIPYNGQVLSNVVKEAKQEGIKVLAYDRMINDADIDFYISFDNEKVGELQAKALVDIVPQGNYFLMGGSPVDNNAKLFRAGQMKVLKPYVDSGKIKVVGDQWVDGWLPENALKIMENALTANNNKIDAVVASNDATAGGAIQALSAQGLSGKVAISGQDADLAGIKRIAAGTQTMTVYKPITLLANTAAEIAVELGNGQEPKADTTLNNGLKDVPSRLLTPIDVNKNNIKDTVIKDGFHKESEL | 2.99 ± 0.08 | 5.41 ± 0.45 | 8.38 ± 1.2 | 4.59 ± 0.8 | 5.33 ± 0.069 | 5.88 ± 0.42 | 4.43 | 6.1 ± 0.13 | 5.53 ± 0.86 | 11.2 ± 2.2 | 5.733 ± 0.025 | 11.9 ± 0.15
MKIKSIRKAVLLLALLTSTSFAAGKNVNVEFRKGHSSAQYSGEIKGYDYDTYTFYAKKGQKVHVSISNEGADTYLFGPGIDDSVDLSRYSPELDSHGQYSLPASGKYELRVLQTRNDARKNKTKKYNVDIQIK | 3.4 ± 0.059 | 5.32 ± 0.57 | 9.98 ± 4 | 5.26 ± 0.85 | 6.18 ± 1.5 | 6.58 ± 0.55 | 5.92 ± 0.064 | 5.41 ± 2.6 | 6.12 ± 0.28 | 11 ± 4.1 | 4.9 ± 0.38 | 11.1 ± 0.15
